# Data: article PMC428907
# Assays:
# purified protein [1] = substrate: Nc1nc2c(ncn2[C@H]2C[C@H](O)[C@@H](CO[P@](=O)(O)OP(=O)(O)O)O2)c(=O)[nH]1; test: purified protein; details: pH 9.4, 7.5 mM Mg2+ (optimal conditions), 37°C
# purified protein [2] = substrate: Nc1nc2c([nH]c(=O)n2[C@H]2C[C@H](O)[C@@H](COP(=O)(O)OP(=O)(O)O)O2)c(=O)[nH]1; test: purified protein; details: pH 9.4, 7.5 mM Mg2+ (optimal conditions), 37°C
protein,measurement,setting,value
DR0975 protein (Deinococcus radiodurans R1 = ATCC 13939 = DSM 20539) (protein) MGRRDLLVAAGILRDRFGRVLLVGNDWQGHGRVRHTLPGGVVEHGETLPEALYREIYEETGLKLTGIKHMAYTVHIEDERRGERAIAVAFEATWEGLLNPADPDGFIVEARFCTVDEALDKLDSPPMREPLADYLNTGEPGRFYAFKGWDGRGGLRIPTLKPVVKDR,Km,purified protein [1],110 µM
same,kcat,purified protein [1],0.18 s⁻¹
same,Km,purified protein [2],170 µM
same,kcat,purified protein [2],0.13 s⁻¹
